Data on five sequences can be found in the supplement of paper PMC5998384.

Data set [1] has as its system HeLa Kyoto. Nature of the data set: solubility in G1/S (NP-40 vs SDS abundance) (log2 ratio); higher = more soluble. The note with it: cell cycle stage: G1/S.
The test system of data set [2] is HeLa Kyoto. Nature of the data set: melting temperature (median over replicates), in situ; higher = more thermally stable.
The test system of data set [3] is HeLa Kyoto. Kind of data set: solubility change mitosis vs G1/S (difference of NP-40 vs SDS log2 ratios) (log2 ratio difference); higher = more soluble in mitosis.
The test system of data set [4] is HeLa Kyoto. Nature of the data set: thermal stability score vs G1/S (z-score of summed log2 fold changes over temperatures); higher = more thermally stable than in G1/S.
The mark [5] stands for this setting: cell cycle stage: early G1 (4.5 h after nocodazole release).
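Throughout, for melting temperature (median over replicates), in situ: HeLa Kyoto cells synchronized by double thymidine or nocodazole block, proteins quantified by TMT10plex mass spectrometry, three independent biological replicates.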
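Throughout, for solubility change mitosis vs G1/S (difference of NP-40 vs SDS log2 ratios): synchronized HeLa Kyoto cells (double thymidine block for G1/S, nocodazole release for mitosis), protein amounts in NP-40 versus SDS lysates quantified by mass spectrometry, three biological replicates.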
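Throughout, for solubility in G1/S (NP-40 vs SDS abundance): HeLa Kyoto cells arrested at G1/S by double thymidine block, proteins quantified by TMT10plex mass spectrometry in mild NP-40 versus SDS extracts, three biological replicates.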
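Throughout, for thermal stability score vs G1/S (z-score of summed log2 fold changes over temperatures): synchronized HeLa Kyoto cells, proteins quantified by TMT10plex mass spectrometry, three biological replicates, mitosis taken 0.5 h after nocodazole release, G1/S directly after double thymidine block.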

“MPSALAIFTCRPNSHPFQERHVYLDEPIKIGRSVARCRPAQNNATFDCKVLSRNHALVWFDHKTGKFYLQDTKSSNGTFINSQRLSRGSEESPPCEILSGDIIQFGVDVTENTRKVTHGCIVSTIKLFLPDGMEARLRSDVIHAPLPSPVDKVAANTPSMYSQELFQLSQYLQEALHREQMLEQKLATLQRLLAITQEASDTSWQALIDEDRLLSRLEVMGNQLQACSKNQTEDSLRKELIALQEDKHNYETTAKESLRRVLQEKIEVVRKLSEVERSLSNTEDECTHLKEMNERTQEELRELANKYNGAVNEIKDLSDKLKVAEGKQEEIQQKGQAEKKELQHKIDEMEEKEQELQAKIEALQADNDFTNERLTALQVRLEHLQEKTLKECSSLEHLLSKSGGDCTFIHQFIECQKKLIVEGHLTKAVEETKLSKENQTRAKESDFSDTLSPSKEKSSDDTTDAQMDEQDLNEPLAKVSLLKDDLQGAQSEIEAKQEIQHLRKELIEAQELARTSKQKCFELQALLEEERKAYRNQVEESTKQIQVLQAQLQRLHIDTENLREEKDSEITSTRDELLSARDEILLLHQAAAKVASERDTDIASLQEELKKVRAELERWRKAASEYEKEITSLQNSFQLRCQQCEDQQREEATRLQGELEKLRKEWNALETECHSLKRENVLLSSELQRQEKELHNSQKQSLELTSDLSILQMSRKELENQVGSLKEQHLRDSADLKTLLSKAENQAKDVQKEYEKTQTVLSELKLKFEMTEQEKQSITDELKQCKNNLKLLREKGNNKPWPWMPMLAALVAVTAIVLYVPGLARASP [SLMAP]”: the “solubility in G1/S (log2)” value with HeLa Kyoto [1] turned out to be 0.152. Further, the melting temperature with HeLa Kyoto [2] (cell cycle stage: G1/S) amounted to 50.6 °C; in the data set on HeLa Kyoto [2] (cell cycle stage: mitosis), 51.2 °C. In addition, the “solubility change mitosis (log2)” value in the data set on HeLa Kyoto [3] stood at 0.0117. Moreover, the thermal stability score in the data set on HeLa Kyoto [4] (setting [5]) turned out to be 0.404; in the data set with HeLa Kyoto [4] (cell cycle stage: mitosis), 0.436.

For the sequence “MPSKFSCRQLREAGQCFESFLVVRGLDMETDRERLRTIYNRDFKISFGTPAPGFSSMLYGMKIANLAYVTKTRVRFFRLDRWADVRFPEKRRMKLGSDISKHHKSLLAKIFYDRAEYLHGKHGVDVEVQGPHEARDGQLLIRLDLNRKEVLTLRLRNGGTQSVTLTHLFPLCRTPQFAFYNEDQELPCPLGPGECYELHVHCKTSFVGYFPATVLWELLGPGESGSEGAGTFYIARFLAAVAHSPLAAQLKPMTPFKRTRITGNPVVTNRIEEGERPDRAKGYDLELSMALGTYYPPPRLRQLLPMLLQGTSIFTAPKEIAEIKAQLETALKWRNYEVKLRLLLHLEELQMEHDIRHYDLESVPMTWDPVDQNPRLLTLEVPGVTESRPSVLRGDHLFALLSSETHQEDPITYKGFVHKVELDRVKLSFSMSLLSRFVDGLTFKVNFTFNRQPLRVQHRALELTGRWLLWPMLFPVAPRDVPLLPSDVKLKLYDRSLESNPEQLQAMRHIVTGTTRPAPYIIFGPPGTGKTVTLVEAIKQVVKHLPKAHILACAPSNSGADLLCQRLRVHLPSSIYRLLAPSRDIRMVPEDIKPCCNWDAKKGEYVFPAKKKLQEYRVLITTLITAGRLVSAQFPIDHFTHIFIDEAGHCMEPESLVAIAGLMEVKETGDPGGQLVLAGDPRQLGPVLRSPLTQKHGLGYSLLERLLTYNSLYKKGPDGYDPQFITKLLRNYRSHPTILDIPNQLYYEGELQACADVVDRERFCRWAGLPRQGFPIIFHGVMGKDEREGNSPSFFNPEEAATVTSYLKLLLAPSSKKGKARLSPRSVGVISPYRKQVEKIRYCITKLDRELRGLDDIKDLKVGSVEEFQGQERSVILISTVRSSQSFVQLDLDFNLGFLKNPKRFNVAVTRAKALLIIVGNPLLLGHDPDWKVFLEFCKENGGYTGCPFPAKLDLQQGQNLLQGLSKLSPSTSGPHSHDYLPQEREGEGGLSLQVEPEWRNEL [MOV10]”, the “solubility in G1/S (log2)” value in the data set on HeLa Kyoto [1] is -0.355. Moreover, the melting temperature in the data set with HeLa Kyoto [2] (cell cycle stage: G1/S) was 52.9 °C; in the data set on HeLa Kyoto [2] (cell cycle stage: mitosis), 51.1 °C. The “solubility change mitosis (log2)” value with HeLa Kyoto [3] is -0.141. Also, the values for the thermal stability score in the data set on HeLa Kyoto [4] (setting [5]) and in the data set on HeLa Kyoto [4] (cell cycle stage: mitosis) were -0.801 and -2.06, respectively.

Turning to “MPSKKKKYNARFPPARIKKIMQTDEEIGKVAAAVPVIISRALELFLESLLKKACQVTQSRNAKTMTTSHLKQCIELEQQFDFLKDLVASVPDMQGDGEDNHMDGDKGARRGRKPGSGGRKNGGMGTKSKDKKLSGTDSEQEDESEDTDTDGEEETSQPPPQASHPSAHFQSPPTPFLPFASTLPLPPAPPGPSAPDEEDEEDYDS [DRAP1]”, in the data set on HeLa Kyoto [1], the “solubility in G1/S (log2)” value amounted to 0.748. Besides, the melting temperature in the data set on HeLa Kyoto [2] (cell cycle stage: G1/S) was 56.9 °C; in the data set with HeLa Kyoto [2] (cell cycle stage: mitosis) it was 55.7 °C. Also, the “solubility change mitosis (log2)” value with HeLa Kyoto [3] worked out at 0.215. Also, the thermal stability score in the data set on HeLa Kyoto [4] (setting [5]) is -2.19; in the data set on HeLa Kyoto [4] (cell cycle stage: mitosis) it was -2.89.

With “MPSSLLGAAMPASTSAAALQEALENAGRLIDRQLQEDRMYPDLSELLMVSAPNNPTVSGMSDMDYPLQGPGLLSVPNLPEISSIRRVPLPPELVEQFGHMQCNCMMGVFPPISRAWLTIDSDIFMWNYEDGGDLAYFDGLSETILAVGLVKPKAGIFQPHVRHLLVLATPVDIVILGLSYANLQTGSGVLNDSLSGGMQLLPDPLYSLPTDNTYLLTITSTDNGRIFLAGKDGCLYEVAYQAEAGWFSQRCRKINHSKSSLSFLVPSLLQFTFSEDDPILQIAIDNSRNILYTRSEKGVIQVYDLGQDGQGMSRVASVSQNAIVSAAGNIARTIDRSVFKPIVQIAVIENSESLDCQLLAVTHAGVRLYFSTCPFRQPLARPNTLTLVHVRLPPGFSASSTVEKPSKVHRALYSKGILLMAASENEDNDILWCVNHDTFPFQKPMMETQMTAGVDGHSWALSAIDELKVDKIITPLNKDHIPITDSPVVVQQHMLPPKKFVLLSAQGSLMFHKLRPVDQLRHLLVSNVGGDGEEIERFFKLHQEDQACATCLILACSTAACDREVSAWATRAFFRYGGEAQMRFPTTLPPPSNVGPILGSPVYSSSPVPSGSPYPNPSFLGTPSHGIQPPAMSTPVCALGNPATQATNMSCVTGPEIVYSGKHNGICIYFSRIMGNIWDASLVVERIFKSGNREITAIESSVPCQLLESVLQELKGLQEFLDRNSQFAGGPLGNPNTTAKVQQRLIGFMRPENGNPQQMQQELQRKFHEAQLSEKISLQAIQQLVRKSYQALALWKLLCEHQFTIIVAELQKELQEQLKITTFKDLVIRDKELTGALIASLINCYIRDNAAVDGISLHLQDICPLLYSTDDAICSKANELLQRSRQVQNKTEKERMLRESLKEYQKISNQVDLSNVCAQYRQVRFYEGVVELSLTAAEKKDPQGLGLHFYKHGEPEEDIVGLQAFQERLNSYKCITDTLQELVNQSKAAPQSPSVPKKPGPPVLSSDPNMLSNEEAGHHFEQMLKLSQRSKDELFSIALYNWLIQVDLADKLLQVASPFLEPHLVRMAKVDQNRVRYMDLLWRYYEKNRSFSNAARVLSRLADMHSTEISLQQRLEYIARAILSAKSSTAISSIAADGEFLHELEEKMEVARIQLQIQETLQRQYSHHSSVQDAVSQLDSELMDITKLYGEFADPFKLAECKLAIIHCAGYSDPILVQTLWQDIIEKELSDSVTLSSSDRMHALSLKIVLLGKIYAGTPRFFPLDFIVQFLEQQVCTLNWDVGFVIQTMNEIGVPLPRLLEVYDQLFKSRDPFWNRMKKPLHLLDCIHVLLIRYVENPSQVLNCERRRFTNLCLDAVCGYLVELQSMSSSVAVQAITGNFKSLQAKLERLH [NUP155]”, the “solubility in G1/S (log2)” value with HeLa Kyoto [1] is -0.247. Besides, the melting temperature in the data set with HeLa Kyoto [2] (cell cycle stage: G1/S) amounted to 50.6 °C; with HeLa Kyoto [2] (cell cycle stage: mitosis) it was 48.8 °C. Besides, the “solubility change mitosis (log2)” value in the data set on HeLa Kyoto [3] was -0.126. For the same sequence, the thermal stability score in the data set on HeLa Kyoto [4] (setting [5]) was -2.62; in the data set on HeLa Kyoto [4] (cell cycle stage: mitosis), -3.4.

In the case of “MPTESASCSTARQTKQKRKSHSLSIRRTNSSEQERTGLPRDMLEGQDSKLPSSVRSTLLELFGQIEREFENLYIENLELRREIDTLNERLAAEGQAIDGAELSKGQLKTKASHSTSQLSQKLKTTYKASTSKIVSSFKTTTSRAACQLVKEYIGHRDGIWDVSVAKTQPVVLGTASADHTALLWSIETGKCLVKYAGHVGSVNSIKFHPSEQLALTASGDQTAHIWRYAVQLPTPQPVADTSISGEDEVECSDKDEPDLDGDVSSDCPTIRVPLTSLKSHQGVVIASDWLVGGKQAVTASWDRTANLYDVETSELVHSLTGHDQELTHCCTHPTQRLVVTSSRDTTFRLWDFRDPSIHSVNVFQGHTDTVTSAVFTVGDNVVSGSDDRTVKVWDLKNMRSPIATIRTDSAINRINVCVGQKIIALPHDNRQVRLFDMSGVRLARLPRSSRQGHRRMVCCSAWSEDHPVCNLFTCGFDRQAIGWNINIPALLQEK [WDR37]”, the “solubility in G1/S (log2)” value in the data set on HeLa Kyoto [1] turned out to be 0.0178. The same sequence showed a melting temperature with HeLa Kyoto [2] (cell cycle stage: G1/S) of 53.3 °C. For the same sequence, in the data set with HeLa Kyoto [3], the “solubility change mitosis (log2)” value is -0.117. Besides, the thermal stability score was -0.8 in the data set with HeLa Kyoto [4] (setting [5]) and -0.627 in the data set on HeLa Kyoto [4] (cell cycle stage: mitosis).
